Reference: US20250376519A1 (JIANGSU HENGRUI PHARMACEUTICALS, published 2025)

Columns and labels:
hCTLA4 = biological target: T1, hCTLA4 (human, UniProt P16410 36-162, limits assumed); assay: ELISA
T1 construct: bought

hPDL1 = biological target: T2, hPDL1 (human, UniProt Q9NZQ7 19-239); assay: ELISA
T2 construct: bought
T2 sequence (Q9NZQ7 19-239 limits assumed): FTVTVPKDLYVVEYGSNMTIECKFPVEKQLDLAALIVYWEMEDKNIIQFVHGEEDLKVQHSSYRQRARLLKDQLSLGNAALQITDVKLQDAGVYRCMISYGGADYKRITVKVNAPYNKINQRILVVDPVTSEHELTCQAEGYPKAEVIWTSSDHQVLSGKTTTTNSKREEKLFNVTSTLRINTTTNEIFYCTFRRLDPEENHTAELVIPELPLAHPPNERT

T1 sequence (P16410 36-162 limits assumed): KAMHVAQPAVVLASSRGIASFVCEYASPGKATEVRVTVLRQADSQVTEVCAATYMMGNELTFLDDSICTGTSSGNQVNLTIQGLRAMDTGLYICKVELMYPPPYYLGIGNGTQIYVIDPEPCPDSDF

Binder	EC50 (hCTLA4)	EC50 (hPDL1)
PL-1 (bispecific antibody) chain 1: not shown chain 2: DIVLTQSPASLAVSPGQRATITCRASESVSIHGTHLMHWYQQKPGQPPKLLIYAASKLESGVPARFSGSGSGTDFTLTINPVEAEDTANYYCQQSFEDPLTFGQGTKLEIKGGGGSGIPPKIECLPIDISIDEGKVLTVASAFTGEPTPEVTWSTGGRKIHSQEQGRFHIENTDDLTTLIIKDVQKQDGGLYTLTLRNEFGSDSATVNIHIRSI chain 3: not shown chain 4: not shown	16.5 nM	1.6 nM
PL-8 (bispecific antibody) chain 1: not shown chain 2: DIVLTQSPASLAVSPGQRATITCRASESVSIHGTHLMHWYQQKPGQPPKLLIYAASKLESGVPARFSGSGSGTDFTLTINPVEAEDTANYYCQQSFEDPLTFGQGTKLEIKGGGGSGIPPKIECLPIDISIDEGKVLTVASAFTGEPTPEVTWSTGGRKIHSQEQGRFHIENTDDSTTLTIKDVQKQDGGLYTLTLRNEFGSDSATVNIHIRSI chain 3: not shown chain 4: not shown	14.5 nM	1.4 nM
PL-10 (bispecific antibody) chain 1: not shown chain 2: DIVLTQSPASLAVSPGQRATITCRASESVSIHGTHLMHWYQQKPGQPPKLLIYAASKLESGVPARFSGSGSGTDFTLTINPVEAEDTANYYCQQSFEDPLTFGQGTKLEIKGGGGSGIPPKIECLPIDISIDEGKVLTVASCFTGEPTPEVTWSTGGRKIHSQEQGRFHIENTDDSTTLTIKDVQKQDGGLYTLTLRNEFGSDSATVNIHIRSI chain 3: not shown chain 4: not shown	6.9 nM	0.6 nM
PL-16 (bispecific antibody) chain 1: not shown chain 2: DIVLTQSPASLAVSPGQRATITCRASESVSIHGTHLMHWYQQKPGQPPKLLIYAASKLESGVPARFSGSGSGTDFTLTINPVEAEDTANYYCQQSFEDPLTFGQGTKLEIKRTVASGIPPKIECLPIDISIDEGKVLTVASCFTGEPTPEVTWSTGGRKIHSQEQGRFHIENTDDSTTLTIKDVQKQDGGLYTLTLRNEFGSDSATVNIHIRSI chain 3: not shown chain 4: not shown	34.9 nM	1.7 nM
PL-3 (bispecific antibody) chain 1: not shown chain 2: DIVLTQSPASLAVSPGQRATITCRASESVSIHGTHLMHWYQQKPGQPPKLLIYAASKLESGVPARFSGSGSGTDFTLTINPVEAEDTANYYCQQSFEDPLTFGQGTKLEIKGGGGSGIPPKIECLPIDISIDEGKCLTVASAFTGEPTPEVTWSTGGRKIHSQEQGRFHIENTDDSTTLTIKDVQKQDGGLYTLTLRNEFGSDSATVNIHIRSI chain 3: not shown chain 4: not shown	7.9 nM	0.6 nM
PL-12 (bispecific antibody) chain 1: not shown chain 2: DIVLTQSPASLAVSPGQRATITCRASESVSIHGTHLMHWYQQKPGQPPKLLIYAASKLESGVPARFSGSGSGTDFTLTINPVEAEDTANYYCQQSFEDPLTFGQGTKLEIKRTVASGIPPKIECLPIDISIDEGKCLTVASAFTGEPTPEVTWSTGGRKIHSQEQGRFHIENTDDSTTLTIKDVQKQDGGLYTLTLRNEFGSDSATVNIHIRSI chain 3: not shown chain 4: not shown	8 nM	0.5 nM
PL-2 (bispecific antibody) chain 1: not shown chain 2: DIVLTQSPASLAVSPGQRATITCRASESVSIHGTHLMHWYQQKPGQPPKLLIYAASKLESGVPARFSGSGSGTDFTLTINPVEAEDTANYYCQQSFEDPLTFGQGTKLEIKGGGGSGIPPKIECLPIDISIDEGKVLTVASAFTGEPTPEVTWSTGGRKIHSQEQGRFHIENTDDSTTLTIKDVQKQDGGLYTLTLRNEFGSDSATVNIHIRSI chain 3: not shown chain 4: not shown	8 nM	0.5 nM
PL-18 (bispecific antibody) chain 1: not shown chain 2: DIVLTQSPASLAVSPGQRATITCRASESVSIHGTHLMHWYQQKPGQPPKLLIYAASKLESGVPARFSGSGSGTDFTLTINPVEAEDTANYYCQQSFEDPLTFGQGTKLEIKRTVASGIPPKIECLPIDISIDEGKCLTVASAFTGEPTPEVTWSTGGRKIHSQEQGRFHIENTDDSTTLTIKDVQKQDGGLYTLTLRNEFGSDSATVNIHIRSI chain 3: not shown chain 4: not shown	6.7 nM	1.6 nM
PL-5 (bispecific antibody) chain 1: not shown chain 2: DIVLTQSPASLAVSPGQRATITCRASESVSIHGTHLMHWYQQKPGQPPKLLIYAASKLESGVPARFSGSGSGTDFTLTINPVEAEDTANYYCQQSFEDPLTFGQGTKLEIKGGGGSGIPPKIECLPIDISIDEGKVLTVASAFTGEPTPEVTWSTGGRKIHSQEQGRFHIENTDDSTTLTIKDVQKQDGGLYTLTLRNEFGSDSATVNIHIRSI chain 3: not shown chain 4: not shown	6.7 nM	0.7 nM
PL-7 (bispecific antibody) chain 1: not shown chain 2: DIVLTQSPASLAVSPGQRATITCRASESVSIHGTHLMHWYQQKPGQPPKLLIYAASKLESGVPARFSGSGSGTDFTLTINPVEAEDTANYYCQQSFEDPLTFGQGTKLEIKGGGGSGIPPKIECLPIDISIDEGKVLTVASCFTGEPTPEVTWSTGGRKIHSQEQGRFHIENTDDSTTLTIKDVQKQDGGLYTLTLRNEFGSDSATVNIHIRSI chain 3: not shown chain 4: not shown	7.3 nM	0.5 nM
PL-4 (bispecific antibody) chain 1: not shown chain 2: DIVLTQSPASLAVSPGQRATITCRASESVSIHGTHLMHWYQQKPGQPPKLLIYAASKLESGVPARFSGSGSGTDFTLTINPVEAEDTANYYCQQSFEDPLTFGQGTKLEIKGGGGSGIPPKIECLPIDISIDEGKVLTVASCFTGEPTPEVTWSTGGRKIHSQEQGRFHIENTDDSTTLTIKDVQKQDGGLYTLTLRNEFGSDSATVNIHIRSI chain 3: not shown chain 4: not shown	6.5 nM	0.7 nM

Next, values leading:

EC50 (hCTLA4)	EC50 (hPDL1)	Binder
5.5 nM	0.6 nM	PL-9 (bispecific antibody) chain 1: not shown chain 2: DIVLTQSPASLAVSPGQRATITCRASESVSIHGTHLMHWYQQKPGQPPKLLIYAASKLESGVPARFSGSGSGTDFTLTINPVEAEDTANYYCQQSFEDPLTFGQGTKLEIKGGGGSGIPPKIECLPIDISIDEGKCLTVASAFTGEPTPEVTWSTGGRKIHSQEQGRFHIENTDDSTTLTIKDVQKQDGGLYTLTLRNEFGSDSATVNIHIRSI chain 3: not shown chain 4: not shown
5.3 nM	0.8 nM	PL-6 (bispecific antibody) chain 1: not shown chain 2: DIVLTQSPASLAVSPGQRATITCRASESVSIHGTHLMHWYQQKPGQPPKLLIYAASKLESGVPARFSGSGSGTDFTLTINPVEAEDTANYYCQQSFEDPLTFGQGTKLEIKGGGGSGIPPKIECLPIDISIDEGKCLTVASAFTGEPTPEVTWSTGGRKIHSQEQGRFHIENTDDSTTLTIKDVQKQDGGLYTLTLRNEFGSDSATVNIHIRSI chain 3: not shown chain 4: not shown
6.5 nM	1.6 nM	PL-19 (bispecific antibody) chain 1: not shown chain 2: DIVLTQSPASLAVSPGQRATITCRASESVSIHGTHLMHWYQQKPGQPPKLLIYAASKLESGVPARFSGSGSGTDFTLTINPVEAEDTANYYCQQSFEDPLTFGQGTKLEIKRTVASGIPPKIECLPIDISIDEGKVLTVASCFTGEPTPEVTWSTGGRKIHSQEQGRFHIENTDDSTTLTIKDVQKQDGGLYTLTLRNEFGSDSATVNIHIRSI chain 3: not shown chain 4: not shown
5.6 nM	0.6 nM	PL-11 (bispecific antibody) chain 1: not shown chain 2: DIVLTQSPASLAVSPGQRATITCRASESVSIHGTHLMHWYQQKPGQPPKLLIYAASKLESGVPARFSGSGSGTDFTLTINPVEAEDTANYYCQQSFEDPLTFGQGTKLEIKRTVASGIPPKIECLPIDISIDEGKVLTVASAFTGEPTPEVTWSTGGRKIHSQEQGRFHIENTDDSTTLTIKDVQKQDGGLYTLTLRNEFGSDSATVNIHIRSI chain 3: not shown chain 4: not shown
6.2 nM	1.4 nM	PL-17 (bispecific antibody) chain 1: not shown chain 2: DIVLTQSPASLAVSPGQRATITCRASESVSIHGTHLMHWYQQKPGQPPKLLIYAASKLESGVPARFSGSGSGTDFTLTINPVEAEDTANYYCQQSFEDPLTFGQGTKLEIKRTVASGIPPKIECLPIDISIDEGKVLTVASAFTGEPTPEVTWSTGGRKIHSQEQGRFHIENTDDSTTLTIKDVQKQDGGLYTLTLRNEFGSDSATVNIHIRSI chain 3: not shown chain 4: not shown
6 nM	1.3 nM	PL-14 (bispecific antibody) chain 1: not shown chain 2: DIVLTQSPASLAVSPGQRATITCRASESVSIHGTHLMHWYQQKPGQPPKLLIYAASKLESGVPARFSGSGSGTDFTLTINPVEAEDTANYYCQQSFEDPLTFGQGTKLEIKRTVASGIPPKIECLPIDISIDEGKVLTVASAFTGEPTPEVTWSTGGRKIHSQEQGRFHIENTDDSTTLTIKDVQKQDGGLYTLTLRNEFGSDSATVNIHIRSI chain 3: not shown chain 4: not shown
4.4 nM	0.5 nM	PL-13 (bispecific antibody) chain 1: not shown chain 2: DIVLTQSPASLAVSPGQRATITCRASESVSIHGTHLMHWYQQKPGQPPKLLIYAASKLESGVPARFSGSGSGTDFTLTINPVEAEDTANYYCQQSFEDPLTFGQGTKLEIKRTVASGIPPKIECLPIDISIDEGKVLTVASCFTGEPTPEVTWSTGGRKIHSQEQGRFHIENTDDSTTLTIKDVQKQDGGLYTLTLRNEFGSDSATVNIHIRSI chain 3: not shown chain 4: not shown
3.2 nM	1.4 nM	PL-15 (bispecific antibody) chain 1: not shown chain 2: DIVLTQSPASLAVSPGQRATITCRASESVSIHGTHLMHWYQQKPGQPPKLLIYAASKLESGVPARFSGSGSGTDFTLTINPVEAEDTANYYCQQSFEDPLTFGQGTKLEIKRTVASGIPPKIECLPIDISIDEGKCLTVASAFTGEPTPEVTWSTGGRKIHSQEQGRFHIENTDDSTTLTIKDVQKQDGGLYTLTLRNEFGSDSATVNIHIRSI chain 3: not shown chain 4: not shown
